Test [1] has as its target CTLA-4-hFc (immunogen A; hFc-labeled CTLA-4 extracellular domain protein) (human) (UniProt P16410). The test is described as follows: ELISA, coated CTLA-4-hFc, competitor biotin-B7.1-hFc.
For test [2] the target is unchanged. The test is described as follows: ELISA, coated CTLA-4-hFc, competitor biotin-B7.2-hFc.
Test [3] deals with human CTLA-4 (Y201V), full length, on transfected cells (human) (UniProt P16410). As to the kind of experiment: FACS, CHOK1-hCTLA-4 cells.
Test [4] shares this target. The test is described as follows: FACS, human CTLA-4 expressing cells.
Test [5] has as its target monkey CTLA-4, full length, on transfected HEK293 cells (monkey). As to the kind of experiment: FACS, monkey CTLA-4 expressing cells.
The target is the same in test [6]. The test is described as follows: FACS, 293F-cCTLA-4 cells.
Test [7] addresses CTLA-4-hFc (immunogen A; hFc-labeled CTLA-4 extracellular domain protein) (human) (UniProt P16410). The test is described as follows: blocking assay, CTLA-4 protein, competitor B7.1.
For test [8] the target is unchanged. As to the kind of experiment: blocking assay, CTLA-4 protein, competitor B7.2.

Chain of CTLA-4-hFc (immunogen A; hFc-labeled CTLA-4 extracellular domain protein) (human) (P16410 36-161 limits assumed): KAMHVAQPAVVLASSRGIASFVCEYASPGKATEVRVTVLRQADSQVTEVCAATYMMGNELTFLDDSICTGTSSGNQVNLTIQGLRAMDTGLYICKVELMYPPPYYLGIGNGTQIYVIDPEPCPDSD
Chain of human CTLA-4 (Y201V), full length, on transfected cells (human) (P16410 36-223 Y201V): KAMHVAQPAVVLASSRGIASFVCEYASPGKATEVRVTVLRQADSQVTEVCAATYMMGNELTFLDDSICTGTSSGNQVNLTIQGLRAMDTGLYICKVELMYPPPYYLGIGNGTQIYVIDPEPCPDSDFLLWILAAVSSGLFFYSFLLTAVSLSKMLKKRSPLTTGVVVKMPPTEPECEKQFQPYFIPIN

Turning to hIgG4 (antibody), in test [1], the Inhibition rate (%) at 0.00091 nM stood at 0%, the Inhibition rate (%) at 0.091 nM is -36%, the Inhibition rate (%) at 0.274 nM is -41% and the Inhibition rate (%) at 0.823 nM was -37%. In test [1], the Inhibition rate (%) at 2.5 nM is -39%, the Inhibition rate (%) at 7.4 nM is -40%, the Inhibition rate (%) at 22.2 nM was -41% and the Inhibition rate (%) at 66.7 nM is -10%. In test [2], the Inhibition rate (%) at 0.00091 nM amounted to 0%, the Inhibition rate (%) at 0.091 nM was -8%, the Inhibition rate (%) at 0.274 nM is -10% and the Inhibition rate (%) at 0.823 nM is -1%. Further, in test [2], the Inhibition rate (%) at 2.5 nM was -7%, the Inhibition rate (%) at 7.4 nM was -12%, the Inhibition rate (%) at 22.2 nM turned out to be 10% and the Inhibition rate (%) at 66.7 nM amounted to 61%.
In test [3], IgG control (human IgG) (antibody) displayed an MFI at 0.07 nM of 2, an MFI at 0.67 nM of 2, an MFI at 6.67 nM of 3 and an MFI at 66.67 nM of 8. In test [4], the MFI at 0.000128 nM amounted to 3, the MFI at 0.0128 nM turned out to be 3, the MFI at 0.064 nM stood at 3 and the MFI at 0.32 nM amounted to 3. In test [4], this substance gave an MFI at 1.6 nM of 3, an MFI at 8 nM of 3, an MFI at 40 nM of 4 and an MFI at 200 nM of 6. In test [5], this substance came in with an MFI at 0.000128 nM of 3, an MFI at 0.0128 nM of 3, an MFI at 0.064 nM of 3 and an MFI at 0.32 nM of 2. In test [5], the MFI at 1.6 nM came out at 3, the MFI at 8 nM worked out at 3, the MFI at 40 nM is 3 and the MFI at 200 nM was 5.
In test [6], hIgG1 (antibody) returned an MFI at 0.000128 nM of 2.7, an MFI at 0.0128 nM of 2.6, an MFI at 0.064 nM of 2.6 and an MFI at 0.32 nM of 2.4. For the same substance, in test [6], the MFI at 1.6 nM amounted to 2.6, the MFI at 8 nM came out at 2.9, the MFI at 40 nM is 3.3 and the MFI at 200 nM is 4.9. For the same substance, in test [7], the % Block at 0.000128 nM was determined as 0%, the % Block at 0.0128 nM was -2%, the % Block at 0.064 nM came out at 0.2% and the % Block at 1.6 nM stood at 1.3%. In addition, in test [7], the % Block at 8 nM was -0.1%, the % Block at 40 nM came to 1.6% and the % Block at 200 nM is -0.3%. Moreover, in test [8], the % Block at 0.000128 nM was 0%, the % Block at 0.0128 nM came to 12.3%, the % Block at 0.064 nM stood at 12.9% and the % Block at 0.32 nM was determined as 15.5%. Further, in test [8], the % Block at 1.6 nM was 4.1%, the % Block at 8 nM was determined as 4.9%, the % Block at 40 nM worked out at 18.3% and the % Block at 200 nM came to 12.4%.

The values above are taken from patent US20210324080A1.
